{"source": "patent CN109929036A", "about": "(TAIZHOU MAIBO TAIKE PHARMACEUTICAL CO LTD, dated 2019)", "binders": {"B1": {"name": "全人源抗PD-1单克隆抗体5L12 (antibody, human IgG4 S228P, kappa, V domains shown)", "VH": "EVQLVESGGGLVQPGGSLRLSCAASGYTFTSYWMLWVRQAPGKGLEWVSYIYPSTGYTEYSENFKDRFTISRDNSKNTLYLQMNSLRAEDTAVYYCARGVRYYFDYWGQGTLVTVSS", "VL": "DIQMTQSPSSLSASVGDRVTITCKSSQSLLDSSTRKNYLAWYQQKPGKAPKLLIYWASTRESGVPSRFSGSGSGTDFTLTISSLQPEDFATYYCKQSYNLWTFGQGTKVEIKR", "notes": "also called FITC-5L12"}}, "key": {"[1]": {"molecular_target": "T1, 化学合成的人PD-1第75-82位氨基酸(序列QTDKLAAF) (human)", "T1 peptide": "QTDKLAAF", "test": "SPR, BIACORE3000, 5L12 coupled to the chip"}, "[2]": {"molecular_target": "CHO细胞重组表达的人PD-1胞外段全长蛋白(第20-170位氨基酸) (human) (UniProt Q15116)", "test": "SPR, BIACORE3000, 5L12 coupled to the chip"}, "[3]": {"molecular_target": "T2, 表面表达人PD-1的基因重组293T细胞上的人PD-1 (human, UniProt Q15116 25-288)", "T2 construct": "whole, on cells; also called 2H-3细胞表面PD-1; 表面表达PD-1的293T细胞", "T2 sequence (Q15116 25-288)": "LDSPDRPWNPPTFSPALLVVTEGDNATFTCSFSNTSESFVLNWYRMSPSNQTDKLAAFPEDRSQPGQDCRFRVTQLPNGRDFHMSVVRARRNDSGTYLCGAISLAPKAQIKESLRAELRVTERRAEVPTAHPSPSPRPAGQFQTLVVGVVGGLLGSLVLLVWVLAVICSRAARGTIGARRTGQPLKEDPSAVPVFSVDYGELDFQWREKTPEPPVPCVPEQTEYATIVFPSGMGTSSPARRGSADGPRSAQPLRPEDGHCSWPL", "test": "flow cytometry competition; displacement of FITC-PD-L1 from PD-1-expressing 293T cells"}}}
{"binder": "B1", "values": [{"measurement": "Kd", "setting": "[1]", "result": "~0.01", "unit": "nM"}, {"measurement": "Kd", "setting": "[2]", "result": 0.01, "unit": "nM"}, {"measurement": "IC50", "setting": "[3]", "result": "~0.03", "unit": "µg/mL"}, {"measurement": "IC50 ratio against Nivolumab", "setting": "[3]", "result": "0.05 fold of the IC50 of Nivolumab"}, {"measurement": "IC50 ratio against Pembrolizumab", "setting": "[3]", "result": "0.5 fold of the IC50 of Pembrolizumab"}]}
